According to article PMC8727950:

Target: honey bee (Apis mellifera) vitellogenin, full-length hemolymph Vg (honey bee (Apis mellifera)) (UniProt Q868N5)
Assay: native gel or EMSA; BN-PAGE of purified Vg, two different amounts loaded; precast 3-12% acrylamide gels, 4 °C, 2 h at 150 V; no reducing agent in loading buffer or gel; monomer to dimer

honey bee (Apis mellifera) vitellogenin, full-length hemolymph Vg (from UniProt Q868N5 17-1770) (natural protein)
stoichiometry N: 2
